{"source": "paper PMC12990809", "test_in_all_cases": "pulldown", "key": {"[1]": {"molecular_target": "T1, RBM47 ins277_K (Meleagris gallopavo) (UniProt G1NI04)", "T1 sequence": "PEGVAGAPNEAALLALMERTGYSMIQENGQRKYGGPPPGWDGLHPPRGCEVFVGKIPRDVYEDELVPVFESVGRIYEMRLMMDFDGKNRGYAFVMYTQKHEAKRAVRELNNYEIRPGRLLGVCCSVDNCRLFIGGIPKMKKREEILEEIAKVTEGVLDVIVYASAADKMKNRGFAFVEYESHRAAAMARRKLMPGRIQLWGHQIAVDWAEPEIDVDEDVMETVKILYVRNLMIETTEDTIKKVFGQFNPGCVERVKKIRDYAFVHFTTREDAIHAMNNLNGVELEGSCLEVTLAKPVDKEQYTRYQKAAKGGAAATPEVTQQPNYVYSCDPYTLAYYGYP", "settings": "20 nM protein, 1.5 uM RNA pool; 20 mM HEPES pH 7.8, 70 mM KCl, 10 mM NaCl, 10% glycerol, 2 mM DTT, 0.1 ug/uL BSA; 30 min, 4 C"}, "[2]": {"molecular_target": "T2, Smp_032060 (Schistosoma mansoni) (UniProt G4LYM0)", "T2 sequence": "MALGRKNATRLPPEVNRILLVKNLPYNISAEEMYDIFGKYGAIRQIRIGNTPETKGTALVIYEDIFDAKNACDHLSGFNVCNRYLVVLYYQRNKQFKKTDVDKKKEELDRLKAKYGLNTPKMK", "settings": "20 nM protein, 1.5 uM RNA pool; 20 mM HEPES pH 7.8, 70 mM KCl, 10 mM NaCl, 10% glycerol, 2 mM DTT, 0.1 ug/uL BSA; 30 min, 4 C"}, "[3]": {"molecular_target": "T3, PK26404.1 L183S (Cannabis sativa) (UniProt A0A7J6ELY7)", "T3 sequence": "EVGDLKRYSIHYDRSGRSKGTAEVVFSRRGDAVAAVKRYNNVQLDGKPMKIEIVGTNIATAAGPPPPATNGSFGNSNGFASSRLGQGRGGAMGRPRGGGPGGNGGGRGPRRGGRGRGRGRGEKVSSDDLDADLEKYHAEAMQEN", "settings": "20 nM protein, 1.5 uM RNA pool; 20 mM HEPES pH 7.8, 70 mM KCl, 10 mM NaCl, 10% glycerol, 2 mM DTT, 0.1 ug/uL BSA; 30 min, 4 C"}, "HNRNPA1L2 (Homo sapiens)": {"molecular_target": "HNRNPA1L2 (Homo sapiens) (UniProt Q32P51)", "sequence (Q32P51 1-226)": "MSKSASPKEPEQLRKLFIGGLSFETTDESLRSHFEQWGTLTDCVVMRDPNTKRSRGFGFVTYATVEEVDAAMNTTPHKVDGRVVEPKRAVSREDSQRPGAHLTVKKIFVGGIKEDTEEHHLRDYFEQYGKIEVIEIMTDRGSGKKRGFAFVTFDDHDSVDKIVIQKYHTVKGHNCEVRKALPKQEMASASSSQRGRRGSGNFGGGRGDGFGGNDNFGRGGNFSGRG", "settings": "20 nM protein, 1.5 uM RNA pool; 20 mM HEPES pH 7.8, 70 mM KCl, 10 mM NaCl, 10% glycerol, 2 mM DTT, 0.1 ug/uL BSA; 30 min, 4 C (protocol of this paper; not …); cited from earlier work"}, "[4]": {"test_system": "T4, PK23842.1 (Cannabis sativa)", "T4 sequence": "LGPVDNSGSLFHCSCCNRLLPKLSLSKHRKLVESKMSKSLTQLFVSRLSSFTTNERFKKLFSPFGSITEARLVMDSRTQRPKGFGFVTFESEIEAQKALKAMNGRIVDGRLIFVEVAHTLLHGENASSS", "settings": "20 nM protein, 1.5 uM RNA pool; 20 mM HEPES pH 7.8, 70 mM KCl, 10 mM NaCl, 10% glycerol, 2 mM DTT, 0.1 ug/uL BSA; 30 min, 4 C"}, "[5]": {"molecular_target": "T5, PFI1175c (Plasmodium falciparum) (UniProt Q8I2R8)", "T5 sequence": "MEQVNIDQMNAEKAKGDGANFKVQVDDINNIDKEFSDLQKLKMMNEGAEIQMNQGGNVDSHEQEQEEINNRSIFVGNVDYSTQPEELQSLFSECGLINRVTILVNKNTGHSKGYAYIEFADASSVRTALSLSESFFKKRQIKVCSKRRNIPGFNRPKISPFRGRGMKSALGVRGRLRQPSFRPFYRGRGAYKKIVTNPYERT", "settings": "20 nM protein, 1.5 uM RNA pool; 20 mM HEPES pH 7.8, 70 mM KCl, 10 mM NaCl, 10% glycerol, 2 mM DTT, 0.1 ug/uL BSA; 30 min, 4 C"}, "HNRNPA2B1 (Homo sapiens)": {"molecular_target": "HNRNPA2B1 (Homo sapiens) (UniProt P22626)", "sequence (P22626 1-233)": "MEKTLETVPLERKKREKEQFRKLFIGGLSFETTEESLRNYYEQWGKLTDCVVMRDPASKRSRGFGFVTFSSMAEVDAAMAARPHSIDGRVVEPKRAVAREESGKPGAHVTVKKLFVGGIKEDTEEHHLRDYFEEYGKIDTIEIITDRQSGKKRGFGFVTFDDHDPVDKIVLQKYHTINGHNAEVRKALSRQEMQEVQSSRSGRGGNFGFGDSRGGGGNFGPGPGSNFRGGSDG", "settings": "20 nM protein, 1.5 uM RNA pool; 20 mM HEPES pH 7.8, 70 mM KCl, 10 mM NaCl, 10% glycerol, 2 mM DTT, 0.1 ug/uL BSA; 30 min, 4 C (protocol of this paper; not …); cited from earlier work"}, "[6]": {"molecular_target": "T6, PK14112.1 (Cannabis sativa) (UniProt A0A7J6DPE0)", "T6 sequence": "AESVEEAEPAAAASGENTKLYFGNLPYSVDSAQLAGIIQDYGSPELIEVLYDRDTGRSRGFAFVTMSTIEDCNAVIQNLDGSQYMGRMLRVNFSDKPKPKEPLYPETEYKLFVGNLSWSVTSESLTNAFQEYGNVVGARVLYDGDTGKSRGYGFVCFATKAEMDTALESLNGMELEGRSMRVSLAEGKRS", "settings": "20 nM protein, 1.5 uM RNA pool; 20 mM HEPES pH 7.8, 70 mM KCl, 10 mM NaCl, 10% glycerol, 2 mM DTT, 0.1 ug/uL BSA; 30 min, 4 C"}, "[7]": {"molecular_target": "T7, PK04894.1 Y197N (Cannabis sativa) (UniProt A0A803PQ48)", "T7 sequence": "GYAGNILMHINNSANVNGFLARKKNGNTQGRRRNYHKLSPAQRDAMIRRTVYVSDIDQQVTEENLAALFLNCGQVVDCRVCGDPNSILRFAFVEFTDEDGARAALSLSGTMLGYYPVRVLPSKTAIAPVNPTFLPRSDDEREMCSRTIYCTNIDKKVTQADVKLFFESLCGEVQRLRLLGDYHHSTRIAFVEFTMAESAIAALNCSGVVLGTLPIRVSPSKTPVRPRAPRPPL", "settings": "20 nM protein, 1.5 uM RNA pool; 20 mM HEPES pH 7.8, 70 mM KCl, 10 mM NaCl, 10% glycerol, 2 mM DTT, 0.1 ug/uL BSA; 30 min, 4 C"}, "[8]": {"molecular_target": "T8, DDB_G0270634 (Dictyostelium discoideum) (UniProt Q55D63)", "T8 sequence": "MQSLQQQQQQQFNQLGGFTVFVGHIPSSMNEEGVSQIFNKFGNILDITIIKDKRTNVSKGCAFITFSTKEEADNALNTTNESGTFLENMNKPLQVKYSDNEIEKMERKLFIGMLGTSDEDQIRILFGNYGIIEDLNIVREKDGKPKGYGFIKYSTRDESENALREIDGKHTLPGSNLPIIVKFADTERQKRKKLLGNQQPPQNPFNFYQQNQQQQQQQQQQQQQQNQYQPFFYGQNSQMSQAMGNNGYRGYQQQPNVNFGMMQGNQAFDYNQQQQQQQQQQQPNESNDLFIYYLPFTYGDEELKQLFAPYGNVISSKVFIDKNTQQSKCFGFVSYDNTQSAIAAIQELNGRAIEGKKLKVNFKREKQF", "settings": "20 nM protein, 1.5 uM RNA pool; 20 mM HEPES pH 7.8, 70 mM KCl, 10 mM NaCl, 10% glycerol, 2 mM DTT, 0.1 ug/uL BSA; 30 min, 4 C"}}}
{"substance": "AGAUGA [RNAcompete motif RNCMPT00394]", "values": [{"measurement": "binding signal (z-score (mean of top ten 7-mers))", "setting": "[1]", "result": 8.98}]}
{"substance": "UUUUNCC [RNAcompete motif RNCMPT00396]", "values": [{"measurement": "binding signal (z-score (mean of top ten 7-mers))", "setting": "[2]", "result": 9.57}]}
{"substance": "GCGCGC [RNAcompete motif RNCMPT00364]", "values": [{"measurement": "binding signal (z-score (mean of top ten 7-mers))", "setting": "[3]", "result": 6.8}]}
{"substance": "UAGGG [RNAcompete motif RNCMPT00023]", "values": [{"measurement": "binding signal (z-score (mean of top ten 7-mers))", "setting": "HNRNPA1L2 (Homo sapiens)", "result": 7.23}]}
{"substance": "AAUCCA [RNAcompete motif RNCMPT00372]", "values": [{"measurement": "binding signal (z-score (mean of top ten 7-mers))", "setting": "[4]", "result": 6.16}]}
{"substance": "AAAAAGA [RNAcompete motif RNCMPT00380]", "values": [{"measurement": "binding signal (z-score (mean of top ten 7-mers))", "setting": "[5]", "result": 9.25}]}
{"substance": "UAGGGA [RNAcompete motif RNCMPT00024]", "values": [{"measurement": "binding signal (z-score (mean of top ten 7-mers))", "setting": "HNRNPA2B1 (Homo sapiens)", "result": 8.86}]}
{"substance": "GAUACUG [RNAcompete motif RNCMPT00392]", "values": [{"measurement": "binding signal (z-score (mean of top ten 7-mers))", "setting": "[6]", "result": 8.21}]}
{"substance": "AAUAAG [RNAcompete motif RNCMPT00346]", "values": [{"measurement": "binding signal (z-score (mean of top ten 7-mers))", "setting": "[7]", "result": 15.1}]}
{"substance": "UUUUUGU [RNAcompete motif RNCMPT00399]", "values": [{"measurement": "binding signal (z-score (mean of top ten 7-mers))", "setting": "[8]", "result": 8.63}]}
